Source: US20160108091A1 (Novartis, published 2016)
Bridges are numbered along the chain shown (N, C = ends). [ ]: non-standard residue; d: D form. 2Nal = N[C@@H](Cc1ccc2ccccc2c1)C(=O)O; NMeF = CN[C@@H](Cc1ccccc1)C(=O)O; pGlu = O=C1CC[C@@H](C(=O)O)N1; d(hCys) = N[C@H](CCS)C(=O)O; dNle = CCCC[C@@H](N)C(=O)O; hCys = N[C@@H](CCS)C(=O)O; Nle = CCCC[C@H](N)C(=O)O; dAbu = CC[C@@H](N)C(=O)O

T1: human APJ receptor (hAPJ) (human, UniProt P35414 1-380)
T1 sequence (looked up): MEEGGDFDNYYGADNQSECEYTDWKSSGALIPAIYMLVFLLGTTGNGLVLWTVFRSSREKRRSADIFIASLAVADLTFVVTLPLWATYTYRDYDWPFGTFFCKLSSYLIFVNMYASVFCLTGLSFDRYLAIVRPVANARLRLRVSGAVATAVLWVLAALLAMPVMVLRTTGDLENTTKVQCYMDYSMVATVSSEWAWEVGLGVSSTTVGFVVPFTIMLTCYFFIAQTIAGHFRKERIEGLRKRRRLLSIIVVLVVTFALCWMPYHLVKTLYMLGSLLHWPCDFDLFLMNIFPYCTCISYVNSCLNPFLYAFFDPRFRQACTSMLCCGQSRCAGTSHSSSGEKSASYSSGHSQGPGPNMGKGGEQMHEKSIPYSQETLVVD

B1: Ac-C*-R-P-R-L-S-C*-K-G-P-Nle-P-a-OH (peptide)
peptide: Ac-CRPRLSCKGP[Nle]P[dA]-OH
modifications: disulfide 1-7
SMILES: CCCC[C@H](NC(=O)[C@@H]1CCCN1C(=O)CNC(=O)[C@H](CCCCN)NC(=O)[C@@H]1CSSC[C@H](NC(C)=O)C(=O)N[C@@H](CCCNC(=N)N)C(=O)N2CCC[C@H]2C(=O)N[C@@H](CCCNC(=N)N)C(=O)N[C@@H](CC(C)C)C(=O)N[C@@H](CO)C(=O)N1)C(=O)N1CCC[C@H]1C(=O)N[C@H](C)C(=O)O
B2: pE-R-P-hC*-L-S-C*-K-G-P-f-a-f-OH (peptide)
peptide: ERPCLSCKGPFAF
modifications: pE at 1; hC (L-homocysteine) at 4; disulfide hC4-C7; D-Phe (f) at 11; D-Ala (a) at 12; D-Phe (f) at 13; free C-terminal acid
B3: Ac-C*-R-P-R-L-S-hC*-K-G-P-Nle-P-F-OH (peptide)
peptide: Ac-CRPRLS[hCys]KGP[Nle]PF-OH
modifications: disulfide 1-7
SMILES: CCCC[C@H](NC(=O)[C@@H]1CCCN1C(=O)CNC(=O)[C@H](CCCCN)NC(=O)[C@@H]1CCSSC[C@H](NC(C)=O)C(=O)N[C@@H](CCCNC(=N)N)C(=O)N2CCC[C@H]2C(=O)N[C@@H](CCCNC(=N)N)C(=O)N[C@@H](CC(C)C)C(=O)N[C@@H](CO)C(=O)N1)C(=O)N1CCC[C@H]1C(=O)N[C@@H](Cc1ccccc1)C(=O)O
B4: pE-R-P-C*-L-S-C*-F-G-P-(D-Nle)-a-f-OH (peptide)
peptide: [pGlu]RPCLSCFGP[dNle][dA][dF]-OH
modifications: disulfide 4-7
SMILES: CCCC[C@@H](NC(=O)[C@@H]1CCCN1C(=O)CNC(=O)[C@H](Cc1ccccc1)NC(=O)[C@@H]1CSSC[C@H](NC(=O)[C@@H]2CCCN2C(=O)[C@H](CCCNC(=N)N)NC(=O)[C@@H]2CCC(=O)N2)C(=O)N[C@@H](CC(C)C)C(=O)N[C@@H](CO)C(=O)N1)C(=O)N[C@H](C)C(=O)N[C@H](Cc1ccccc1)C(=O)O
B5: H-R-P-C*-L-S-C*-K-(D-Nle)-a-f-OH (peptide)
peptide: H-RPCLSCK[dNle][dA][dF]-OH
modifications: disulfide 3-6
SMILES: CCCC[C@@H](NC(=O)[C@H](CCCCN)NC(=O)[C@@H]1CSSC[C@H](NC(=O)[C@@H]2CCCN2C(=O)[C@@H](N)CCCNC(=N)N)C(=O)N[C@@H](CC(C)C)C(=O)N[C@@H](CO)C(=O)N1)C(=O)N[C@H](C)C(=O)N[C@H](Cc1ccccc1)C(=O)O
B6: pE-R-P-c*-L-S-(D-hC)*-K-G-P-(D-Nle)-a-y-OH (peptide)
peptide: ERPCLSCKGPLAY
modifications: pE at 1; D-Cys (c) at 4; D-hC at 7; disulfide 4-7; D-Nle at 11; D-Ala (a) at 12; D-Tyr (y) at 13; free C-terminal acid
B7: Apelin cyclic peptide conjugated to a fatty acid via a BCN-PEG linker: … (peptide)
peptide: ERPCLSCKGPL
modifications: pE at 1; disulfide C4-C7; Lys 8 N6 carries the BCN carbamate, joined by click reaction to azido-dPEG23-amide of docos-21-ene-1,11,11-tricarboxylic acid (fatty acid-PEG linker, compound A); D-Nle at 11 with C-terminal NH(Phenethyl) amide
B8: pE-R-P-(D-hC)*-L-S-hC*-K-G-P-(D-Nle)-(D-Nva)-f-OH (peptide)
peptide: ERPCLSCKGPLVF
modifications: pE at 1; D-hC at 4; hC at 7; disulfide 4-7; D-Nle at 11; D-Nva (D-norvaline) at 12; D-Phe (f) at 13; free C-terminal acid
B9: pE-R-c*-R-L-S-C*-K-G-P-(D-Nle)-(D-abu)-f-OH (peptide)
peptide: [pGlu]R[dC]RLSCKGP[dNle][dAbu][dF]-OH
modifications: disulfide 3-7
SMILES: CCCC[C@@H](NC(=O)[C@@H]1CCCN1C(=O)CNC(=O)[C@H](CCCCN)NC(=O)[C@@H]1CSSC[C@@H](NC(=O)[C@H](CCCNC(=N)N)NC(=O)[C@@H]2CCC(=O)N2)C(=O)N[C@@H](CCCNC(=N)N)C(=O)N[C@@H](CC(C)C)C(=O)N[C@@H](CO)C(=O)N1)C(=O)N[C@H](CC)C(=O)N[C@H](Cc1ccccc1)C(=O)O
B10: pE-R-C*-R-L-S-(D-hC)*-K-G-P-f-a-f-OH (peptide)
peptide: [pGlu]RCRLS[d(hCys)]KGP[dF][dA][dF]-OH
modifications: disulfide 3-7
SMILES: CC(C)C[C@@H]1NC(=O)[C@H](CCCNC(=N)N)NC(=O)[C@@H](NC(=O)[C@H](CCCNC(=N)N)NC(=O)[C@@H]2CCC(=O)N2)CSSCC[C@H](C(=O)N[C@@H](CCCCN)C(=O)NCC(=O)N2CCC[C@H]2C(=O)N[C@H](Cc2ccccc2)C(=O)N[C@H](C)C(=O)N[C@H](Cc2ccccc2)C(=O)O)NC(=O)[C@H](CO)NC1=O
B11: pE-R-P-C*-L-S-C*-K-G-P-(D-Nle)-a-f-OH (peptide)
peptide: ERPCLSCKGPLAF
modifications: pE at 1; disulfide C4-C7; D-Nle at 11; D-Ala (a) at 12; D-Phe (f) at 13; free C-terminal acid
B12: Ac-hC*-R-P-R-L-S-hC*-K-G-P-Nle-P-F-OH (peptide)
peptide: Ac-[hCys]RPRLS[hCys]KGP[Nle]PF-OH
modifications: disulfide 1-7
SMILES: CCCC[C@H](NC(=O)[C@@H]1CCCN1C(=O)CNC(=O)[C@H](CCCCN)NC(=O)[C@@H]1CCSSCC[C@H](NC(C)=O)C(=O)N[C@@H](CCCNC(=N)N)C(=O)N2CCC[C@H]2C(=O)N[C@@H](CCCNC(=N)N)C(=O)N[C@@H](CC(C)C)C(=O)N[C@@H](CO)C(=O)N1)C(=O)N1CCC[C@H]1C(=O)N[C@@H](Cc1ccccc1)C(=O)O
B13: Ac-C*-R-P-R-L-S-C*-K-G-P-Nle-P-NH2 (peptide)
peptide: Ac-CRPRLSCKGP[Nle]P-NH2
modifications: disulfide 1-7
SMILES: CCCC[C@H](NC(=O)[C@@H]1CCCN1C(=O)CNC(=O)[C@H](CCCCN)NC(=O)[C@@H]1CSSC[C@H](NC(C)=O)C(=O)N[C@@H](CCCNC(=N)N)C(=O)N2CCC[C@H]2C(=O)N[C@@H](CCCNC(=N)N)C(=O)N[C@@H](CC(C)C)C(=O)N[C@@H](CO)C(=O)N1)C(=O)N1CCC[C@H]1C(N)=O

target: T1, human APJ receptor (hAPJ); assay: cell-based or functional assay

| Binder | hAPJ Ca^2+ Flux EC50 [nM] |
| --- | --- |
| B1 | 13.1 |
| ERPCLSCKGPLPF (pE at 1; disulfide C4-C7; Nle at 11; (N-Me)F at 13; free C-terminal acid) [pE-R-P-C*-L-S-C*-K-G-P-Nle-P-(N-Me)F-OH] | 4.2 |
| B2 | 4.2 |
| ERPCLSCKGPL (pE at 1; disulfide C4-C7; Nle at 11 with C-terminal NH(Phenethyl) amide) [pE-R-P-C*-L-S-C*-K-G-P-Nle-NH(Phenethyl)] | 0.5 |
| B3 | 21.4 |
| ERPCLSCKGPLP (pE at 1; disulfide C4-C7; Nle at 11; C-terminal NH(Phenethyl) amide on P12) [pE-R-P-C*-L-S-C*-K-G-P-Nle-P-NH(Phenethyl)] | 0.4 |
| Ac-CRPRLSCKGP[Nle]P[NMeF]-OH (disulfide 1-7) [Ac-C*-R-P-R-L-S-C*-K-G-P-Nle-P-(N-Me)F-OH] | 64.5 |
| B4 | 2 |
| B5 | 66.7 |
| B6 | 937 |
| Ac-CRPRLSCKGP[Nle]P-{NMe(Phenethyl)} (disulfide 1-7) [Ac-C*-R-P-R-L-S-C*-K-G-P-Nle-P-NMe(Phenethyl)] | 23.4 |
| B7 | 2480 |
| B8 | 175 |
| B9 | 86.5 |
| B10 | 2290 |
| B11 | 1.9 |
| ERPCLSCKGPL (pE at 1; disulfide C4-C7; D-Nle at 11 with C-terminal NH(Phenethyl) amide) [pE-R-P-C*-L-S-C*-K-G-P-(D-Nle)-NH(Phenethyl)] | 3 |
| Ac-CRPRLSCKGP[Nle]P[2Nal]-OH (disulfide 1-7) [Ac-C*-R-P-R-L-S-C*-K-G-P-Nle-P-Nal-OH] | 1.6 |
| B12 | 11.8 |
| B13 | 74.6 |
| ERPCLSCKGPLF (pE at 1; disulfide C4-C7; D-Nle at 11; D-Phe (f) at 12; free C-terminal acid) [pE-R-P-C*-L-S-C*-K-G-P-(D-Nle)-f-OH] | 0.6 |
| ERPCLSCKGPLPF (pE at 1; disulfide C4-C7; Nle at 11; free C-terminal acid) [pE-R-P-C*-L-S-C*-K-G-P-Nle-P-F-OH] | 3.1 |
